Assay results as given in US20230029635A1 (US Dept. of Health and Human Services, published 2023).

Experiments:
[1] = target: T1, Mouse C3b/iC3b/C3d deposited on zymosan particles (mouse, UniProt P01027 1002-1303, limits assumed); assay: flow cytometry: His-tagged Fab at 5 µg/mL on zymosan particles opsonized with 50% mouse serum, mouse anti-6xHis Alexa Fluor 488
T1 construct: also called Zymosan deposited C3b/iC3b/(C3d) mouse
Method: One million zymosan particles deposited with C3b/iC3b/C3d were added into one well of a V-bottom 96-well plate. Then 500 ng/100 μL of antibody was applied in each well at 37° C. for 1 h. After washing three times by phosphate buffered saline and TWEEN™ 20 (PBST), 100 μL of a 1:1000 dilution of a mouse anti-His tag mAb conjugated to ALEXA FLUOR™ 488 (Qiagen, Hilden, Germany) in 1% (w/v) bovine serum albumin (BSA)/DPBS was used to detect the antibody.
The cross reactivity of 5 μg/mL of antibodies of the invention with 6xHis tag to human, or cynomolgus, or mouse C3b/iC3b/C3d deposited on zymosan particles after incubation with 50% corresponding serum at 37° C. for 45 min was determined by flow cytometry with a secondary mouse anti-HIS mAb conjugated to ALEXA FLUOR™ 488. […] In Table 3, the relative level of affinity is shown by the number of plus or minus signs (e.g., +++=high affinity). m/h and r/h denote […], respectively, variable domains fused human constant domains; k, kappa light chain; λ, lambda light chain.

[2] = target: T2, Jeko1 cell line deposited C3d (human, UniProt P01024 1002-1303, limits assumed); assay: flow cytometry: Fab at 2.5 µg/mL on JeKo-1 cells opsonized with 10 µg/mL rituximab and incubated with 50% C5-depleted human serum for 2 h with 0.5 U/mL CR1 or for 24 h (C3b/iC3b decayed to C3d)
T2 construct: domain: C3d; also called human C3d on JeKo-1 cells
T2 sequence (P01024 1002-1303 limits assumed): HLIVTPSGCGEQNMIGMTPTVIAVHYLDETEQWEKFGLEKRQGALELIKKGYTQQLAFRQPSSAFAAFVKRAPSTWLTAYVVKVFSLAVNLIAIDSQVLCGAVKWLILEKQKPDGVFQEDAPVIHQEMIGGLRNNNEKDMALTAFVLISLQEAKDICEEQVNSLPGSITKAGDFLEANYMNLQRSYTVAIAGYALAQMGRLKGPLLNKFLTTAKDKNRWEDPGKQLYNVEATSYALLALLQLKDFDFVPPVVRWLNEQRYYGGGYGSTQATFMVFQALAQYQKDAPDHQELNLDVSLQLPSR
Method: FIG. 13 is a graph showing the binding activity of antibodies of the invention to different human C3 fragments. The binding of each chimeric rabbit/human Fab at 2.5 μg/mL to C3b/iC3b/(C3d), or C3d was determined by flow cytometry against JeKo-1 cells deposited with human C3 fragments after opsonization by 10 μg/mL rituximab (RTX) followed by incubation with 50% CS-depleted human serum for 2 h with or without 0.5 U/mL CR1 or 24 h. In the presence of CR1 or after treatment with serum for 24 h, most of C3 fragments had decayed from C3b/iC3b to C3d.
To deposit C3 fragments on zymosan, one hundred million of preactivated zymosan particles (Complement Technology, Inc.) were washed and then incubated with 50% pooled normal human complement serum (PNHCS) or normal BALB/c mouse or cynomolgus complement serum in 1 mL Dulbecco's phosphate-buffered saline (DPBS) at 37° C. for 1 h. For JeKo-1 cells, 10 μg/mL rituximab (RTX) was first used to opsonize cells followed by incubation with 50% CS-depleted PNHCS. To allow C3b/iC3b deposited on JeKo-1 cells to decay to C3d, the incubation time of cells with serum was prolonged to 24 h, or 0.5 U/mL CR1 (rhCD35, R&D Systems, Minneapolis, Minn.) was included during the incubation. […]

hFc-mC3d [3] = target: T3, hFc-mC3d (mouse, UniProt P01027 1002-1303); assay: SPR, hFc-mC3d captured by anti-human IgG CH2 mAb, Fab injected
T3 construct: domain: C3d; also called hFc-mC3d fusion protein; not shown: human Fc of vector pCEP4-hFc
T3 sequence (P01027 other isoform, or with tags, fused parts or gaps): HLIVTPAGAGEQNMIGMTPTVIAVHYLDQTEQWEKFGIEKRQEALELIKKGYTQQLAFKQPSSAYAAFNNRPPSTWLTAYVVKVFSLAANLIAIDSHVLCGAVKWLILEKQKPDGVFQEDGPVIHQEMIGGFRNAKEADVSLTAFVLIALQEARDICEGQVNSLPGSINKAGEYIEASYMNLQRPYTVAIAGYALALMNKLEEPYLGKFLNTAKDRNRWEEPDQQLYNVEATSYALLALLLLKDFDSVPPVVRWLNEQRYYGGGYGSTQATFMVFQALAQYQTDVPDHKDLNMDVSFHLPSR

hFc-hC3d [4] = target: T4, hFc-hC3d (human, UniProt P01024 1002-1303); assay: SPR (Biacore X100), hFc-hC3d captured by anti-human IgG CH2 mAb, Fab injected, 1:1 Langmuir
T4 construct: range 1002-1303; expressed in HEK293F cells, purified on Protein A; also called hFc-hC3d fusion protein; not shown: human Fc of vector pCEP4-hFc
T4 sequence (P01024 other isoform, or with tags, fused parts or gaps, form in doubt): as the sequence (P01024 1002-1303 limits assumed) above, with C9A counted along it
Method: (§1) Surface plasmon resonance (SPR) for the measurement of kinetic and thermodynamic parameters of the binding of purified antibodies to hC3d or mC3d antigens was performed on a Biacore X100 instrument using Biacore reagents and software (GE Healthcare, Chicago, Ill.). A mouse anti-human IgG CH2 mAb was immobilized on a CM5 sensor chip using reagents and instructions supplied with the Human Antibody Capture Kit (GE Healthcare). hFc-hC3d and hFc-mC3d fusion proteins were captured at a density not exceeding 400 RU. Each sensor chip included an empty flow cell for instantaneous background depletion. All binding assays used 1×HBS-EP+ running buffer (10 mM HEPES, 150 mM NaCl, 3 mM EDTA (pH 7.4), and 0.05% (v/v) surfactant P20) and a flow rate of 30 μL/min. All of the Fabs were injected at five different concentrations (dilution factor was 2), and the lowest concentration was tested in duplicates. The sensor chips were regenerated with 3 M MgCl₂ from the Human Antibody Capture Kit without any loss of binding capacity. Calculation of association (kₒₙ) and dissociation (koff) rate constants was based on a 1:1 Langmuir binding model. The equilibrium dissociation constant (KD) was calculated from koff/kₒₙ.

hFc-hC3d [5] = target: T4, hFc-hC3d; assay: Table 3, column Human C3d; rounded form of the SPR Kd on hFc-hC3d of Table 2
Method: as §1

hFc-mC3d [6] = target: T3, hFc-mC3d; assay: SPR (Biacore X100), hFc-mC3d captured by anti-human IgG CH2 mAb, Fab injected, 1:1 Langmuir
Method: as §1

hFc-mC3d [7] = target: T3, hFc-mC3d; assay: Table 3, column Mouse C3d; rounded form of the SPR Kd on hFc-mC3d of Table 2
Method: as §1

hFc-mC3d [8] = target: T3, hFc-mC3d; assay: Table 3, column Mouse C3d; the SPR Kd on hFc-mC3d of Table 2
Method: as §1

hFc-hC3d [9] = target: T4, hFc-hC3d; assay: Table 3, column Human C3d; the SPR Kd on hFc-hC3d of Table 2
Method: as §1

T1 sequence (P01027 1002-1303 limits assumed): as the sequence (P01027 other isoform, or with tags, fused parts or gaps) above, with A9C counted along it

B1: 3NS1 (Fab, V domains shown)
VH: QSVEESGGRLVTPGTPLTLTCTVSGFSLSNYIITWVRQAPGKGLEWIGMISTDGDTYYANWAKGRFTISKTSTTANLKITSPTTEDTATYFCARGLTNFFIWGPGTLVTVSS
VL: QPVLTQSPSVSAALGASAKLTCTLSSAHKTYSIGWYQQHQGEAPRFLMQLRRDGSYTKGTGVPDHFSGSSSGADRYLIIPNVQADDEADYYCGVDYDGGYVFGGGTQLTVTG
notes: Chimeric rabbit/human Fab, lambda, with 6xHis tag; also called 3NS1 r/h-IgG1λ
- binding result [1]: no binding (tested: 5 µg/mL)
- binding result [2]: binds
- binding result (hFc-mC3d [3]): no binding

B2: 4S12 (Fab, V domains shown)
VH: QEQLVESGGRLVTPGTPLTLTCTVSGFSLSSYHMSWVRQAPGKGLEWIGIIYFTGDASYASWAKGRFTISKTSPTTVDLKITSPTTEDTATYFCARDTDWNSSRTIPFDPWGPGTLVTVSS
VL: SFVLTQPASVQVNLGQTVSLTCTADTLSRTYASWYQQKPGQAPVLLIYRDTSRPSGVPDRFSGSSSGNTATLTISGAQAGDEADYYCATSDGSGSSYQYVFGGGTQLTVTG
notes: Chimeric rabbit/human Fab, lambda, with 6xHis tag
- binding result [1]: no binding (tested: 5 µg/mL)
- binding result (hFc-mC3d [3]): no binding

B3: 3NS3 (Fab, V domains shown)
VH: QSLEESGGGLVTPGTPLTLTCTVSGIDLSAYAMTWVRQAPGKGLEWIGMISTDGATYYASWAKGRFTISKTSTTADLTITSPTTEDTATYFCARGLTNFFIWGPGTLVTISS
VL: QPVLTQSPSASATLGSSAKLTCTLSSAHSTYTIAWYQQKQGESPRCLMYLKSDGSYTRGTGVPDRFSGSSSGADRYLIIPNVQADDEADYYCGADYSGGYLFGGGTQLTVTG
notes: as for B2
- binding result [1]: no binding (tested: 5 µg/mL)
- binding result (hFc-mC3d [3]): no binding

B4: 3NS2 (Fab, V domains shown)
VH: QSVEESGGRLVTPGTPLTLTCTVSGIDLSSYSMGWVRQAPGKGLEWIGIIYNTGRIDYANWAKGRFTISKTSTTVDLKITSPTIGDTATYFCGRGYPGDIWGPGTLVTVSS
VL: DVVMTQTPSSVSAAVGGTVTIKCQASESIYSDLAWYQQKPGQRPKLLIYFASTLASGVPSRFKGSGSGTEYTLTISGVQREDAATYYCLGDYGNSWAFGAGTKVEIK
notes: as for B2
- binding result [1]: no binding (tested: 5 µg/mL)
- binding result (hFc-mC3d [3]): no binding

B5: 4S04 (Fab, V domains shown)
VH: QEQLKESGGRLVTPGTPLTLTCTASGFSLSTYAMIWVRQAPGKGLEYIGIISYGGSAYYASWAKGRFTISKTSTTVDLKITSPTTEDTATYFCARDRGFGYGYGIGYYGLDPWGPGTLVTVSS
VL: DGVMTQTPSSTSAAVEGTVTINCQASQSIGSYLSWYQQKPGQPPKLLIYQASKMASGVPSRFKGSGSGTQFTLTISNVQGEDAATYYCLGHYVGDWSFGAGTKVEIK
notes: Chimeric rabbit/human Fab, kappa, with 6xHis tag
- Kd (hFc-hC3d [4]): 4.11 nM

B6: 5S8 (Fab, V domains shown)
VH: QSVEESGGRLVTPGTPLTLTCTVSGFSLSSYAMTWVRQAPGKGLEWIGVIGTSGMRYYANWAKGRFTISKTSTTVDLKITSPTTEDTATYFCARANFYVGNDESTDAFDPWGPGTLVTVSS
VL: ALVMTQTPPSLSASVGETVRIRCLASEDIYNTISWYQQKPGKPPTLLIYGASNLKSGVPPRFSGSGSGTDYTLTIGGVQSEDAATYYCLGGYSYSSTGLTFGAGTKVEIK
notes: Chimeric rabbit/human Fab, kappa, with 6xHis tag in SPR, zymosan and JeKo-1 assays; also called Fab 5S8; 5S8 r/h-IgG1k
- Kd (hFc-hC3d [5]): 3.4 nM
- Kd (hFc-mC3d [6]): 9.04 nM
- Kd (hFc-mC3d [7]): 9 nM
- Kd (hFc-hC3d [4]): 3.35 nM

B7: 3N07 (Fab, V domains shown)
VH: QSLEESGGRLVTPGTPLTLTCTVSGFSLSRYTMAWVRQAPGKGLEYIGWIDSSGSTYYASWAKGRFTISKTSSTTVDLKMTSLTTEDTATYFCASGNDGGDPLYYGMDPWGPGTLVTVSS
VL: DGVMTQTPSSTSAAVGGTVTIKCQASQSIRSWLSWYQQKPGQPPKLLIYEASKLASGVPSRFKGSRSGTEYTLAISGVQREDAATYYCLGSIASDDTAFGAGTNVEIK
notes: Chimeric rabbit/human Fab, kappa, with 6xHis tag; also called Fab 3N07; 3N07 r/h-IgG1k
- Kd (hFc-hC3d [5]): 3.1 nM
- Kd (hFc-mC3d [6]): 132 nM
- Kd (hFc-hC3d [4]): 3.1 nM
- Kd (hFc-mC3d [8]): 132 nM

B8: d301 (Fab, V domains shown)
VH: QSLEESGGRLVTPGTPLTLTCTVSGFSLSTYTLGWVRQAPGKGLEYIGWIDSSGSAYYASWAKGRFTISKASSTTVDLKMAGLTTEDTATYFCASGNTGGDPLYYGMDPWGPGTLVTVSS
VL: DPVLTQTPSSTSAAVGGTVTIKCQASQNIGRWLAWYQQKPGQPPKLLIYRASDLASGVPSRFKGSGSGTQFTLTISGVQREDAATYYCLGSYSSSDSAFGGGTEVVVK
notes: Chimeric rabbit/human Fab, kappa, with 6xHis tag; also called Fab d301; d301 r/h-IgG1k
- Kd (hFc-mC3d [6]): 22.9 nM
- Kd (hFc-mC3d [7]): 23 nM
- Kd (hFc-hC3d [4]): 0.99 nM
- Kd (hFc-hC3d [9]): 0.99 nM

B9: 3N02 (Fab, V domains shown)
VH: QKQLVESGGRLVTPGGSLTLTCTISGIDLNTYGMTWVRQAPGKGLEYIGIIVSSGNTYYANWAQGRFTISKTSTTVDLKMTSLTASDTATYFCARGLGRAYSSGYGMDGWGPGTLVTVSS
VL: DPVLTQTPSSTSAAVGGTVTIKCQASQNIYTSLAWYQQKPGQPPKLLIYGASNLASGVPSRFKGSRSGTEYTLTISGVEREDAATYYCLGSYTQIDTTFGGGTKLEIK
notes: Chimeric rabbit/human Fab (rabbit variable domains, human kappa constant domain) with 6xHis tag in SPR, zymosan ELISA and flow cytometry; also called 3N02 r/h-IgG1k
- Kd (hFc-hC3d [5]): 13 nM
- Kd (hFc-mC3d [6]): 97.6 nM
- Kd (hFc-mC3d [7]): 98 nM
- Kd (hFc-hC3d [4]): 13.3 nM

B10: MN66 (Fab, V domains shown)
VH: QSVEESGGRLVTPGTPLTLTCTVSGFSLSSYAMSWVRQAPGKGLEWIGIIYPNDITYYASWAKGRFTISKTSTTVDLKITSPTTEDTATYFCARVVSWPGYTTEYYFNIWGPGTLVTISS
VL: QFVLTQPQSVSGSLGQTVSMSCKCDSGNIDNYYVHWYQQHPGKAPTTVIYNDDQRPSGVPDRFSGSIDSTSNSASLTITGLLAEDEADYYCLSSVSSDNYVFGGGTQLTVTG
notes: Lambda
- Kd (hFc-hC3d [4]): 0.31 nM

B11: 4S10 (Fab, V domains shown)
VH: QSVEESRGRLVTPGTPLTLTCTVSGIDLSSSAITWVRQAPGKGLEWIGMISTDGATYYANWAKGRFTFSKTSTTADLKITSPTTEDTATYFCARGLTNFSIWGPGTLVTVSS
VL: QPVLTQSPSASAALGASAKLTCTLSSAHKTYTIAWYQQQPGESPRYLMLLKSDGSYTRGPGVPDRFSGSSSGADRYLIIPSVQADDEAGYYCGADYNGGYVFGGGTQLTVTG
notes: as for B2
- binding result (hFc-mC3d [3]): no binding
